T1: APBA1_1, Q02410
T1 sequence (Q02410 651-752, limits assumed, looked up): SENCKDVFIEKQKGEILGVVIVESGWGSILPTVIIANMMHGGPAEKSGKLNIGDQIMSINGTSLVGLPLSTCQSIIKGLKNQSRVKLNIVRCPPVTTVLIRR

T2: GRIP1_2, Q9Y3R0
T2 sequence (Q9Y3R0 145-248, limits assumed, looked up): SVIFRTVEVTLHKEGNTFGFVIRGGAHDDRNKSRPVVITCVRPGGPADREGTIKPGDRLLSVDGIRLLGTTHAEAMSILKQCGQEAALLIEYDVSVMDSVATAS

T3: GRIP1_3, Q9Y3R0
T3 sequence (Q9Y3R0 247-346, limits assumed, looked up): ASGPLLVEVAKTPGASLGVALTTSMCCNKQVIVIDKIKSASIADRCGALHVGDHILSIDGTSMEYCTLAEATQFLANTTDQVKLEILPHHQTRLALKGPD

T4: GRIP1_7, Q9Y3R0
T4 sequence (Q9Y3R0 999-1096, limits assumed, looked up): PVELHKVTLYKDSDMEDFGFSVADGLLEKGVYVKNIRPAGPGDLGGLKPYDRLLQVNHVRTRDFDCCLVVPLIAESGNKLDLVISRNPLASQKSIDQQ

T5: LIN7A, O14910
T5 sequence (O14910 103-200, limits assumed, looked up): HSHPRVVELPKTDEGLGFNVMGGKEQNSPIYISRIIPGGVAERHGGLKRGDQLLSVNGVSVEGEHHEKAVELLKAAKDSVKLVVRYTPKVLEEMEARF

T6: MPDZ_10, O75970
T6 sequence (O75970 1624-1722, limits assumed, looked up): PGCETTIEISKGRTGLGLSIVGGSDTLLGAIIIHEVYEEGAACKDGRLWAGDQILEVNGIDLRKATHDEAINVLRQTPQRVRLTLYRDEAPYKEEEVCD

T7: NHERF3_1, Q5T2W1
T7 sequence (Q5T2W1 4-100, limits assumed, looked up): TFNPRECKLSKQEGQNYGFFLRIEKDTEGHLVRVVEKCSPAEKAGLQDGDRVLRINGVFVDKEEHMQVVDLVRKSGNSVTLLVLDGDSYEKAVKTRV

T8: PCLO, Q9Y6V0
T8 sequence (Q9Y6V0 4491-4600, limits assumed, looked up): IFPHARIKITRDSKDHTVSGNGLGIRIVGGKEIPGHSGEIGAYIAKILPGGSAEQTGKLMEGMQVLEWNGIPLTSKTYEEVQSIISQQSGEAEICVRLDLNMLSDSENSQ

T9: RADIL, Q96JH8
T9 sequence (Q96JH8 971-1071, limits assumed, looked up): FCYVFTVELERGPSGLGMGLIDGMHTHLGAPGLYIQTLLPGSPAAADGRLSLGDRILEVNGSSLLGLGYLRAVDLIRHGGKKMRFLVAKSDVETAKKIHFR

T10: TIAM2, Q8IVF5
T10 sequence (Q8IVF5 885-986, limits assumed, looked up): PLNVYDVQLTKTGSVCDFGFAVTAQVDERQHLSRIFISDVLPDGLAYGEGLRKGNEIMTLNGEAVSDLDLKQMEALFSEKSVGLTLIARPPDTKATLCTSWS


What was measured:
Assay in all cases: holdup assay
Set-up in all cases: key: below the threshold = too weak to quantify, mostly under pKd 3.1 to 4
Conditions in all cases: plain residues with an end cap or a label only (N-terminal biotin on a linker: ado-ado)
[1] = molecular target: AHNAK1, Q09666
[2] = molecular target: T1, APBA1_1, Q02410
[3] = molecular target: DLG1_1, Q12959
[4] = molecular target: DLG1_3, Q12959
[5] = molecular target: DLG2_2, Q15700
[6] = molecular target: DLG2_3, Q15700
[7] = molecular target: GIPC2, Q8TF65
[8] = molecular target: GOPC, Q9HD26
[9] = molecular target: GORASP2, Q9H8Y8
[10] = molecular target: GRID2IP_1, A4D2P6
[11] = molecular target: T2, GRIP1_2, Q9Y3R0
[12] = molecular target: T3, GRIP1_3, Q9Y3R0
[13] = molecular target: T4, GRIP1_7, Q9Y3R0
[14] = molecular target: GRIP2_7, Q9C0E4
[15] = molecular target: Inadl_1, Q8NI35
[16] = molecular target: LDB3, O75112
[17] = molecular target: T5, LIN7A, O14910
[18] = molecular target: MAGI2_2, Q86UL8
[19] = molecular target: MAGI2_3, Q86UL8
[20] = molecular target: T6, MPDZ_10, O75970
[21] = molecular target: T7, NHERF3_1, Q5T2W1
[22] = molecular target: NHERF4_4, Q86UT5
[23] = molecular target: T8, PCLO, Q9Y6V0
[24] = molecular target: T9, RADIL, Q96JH8
[25] = molecular target: SCRIB_3, Q14160
[26] = molecular target: T10, TIAM2, Q8IVF5
[27] = molecular target: TJP1_2, Q07157
[28] = molecular target: TJP1_3, Q07157
Chain of TJP1_3, Q07157 (Q07157 416-512): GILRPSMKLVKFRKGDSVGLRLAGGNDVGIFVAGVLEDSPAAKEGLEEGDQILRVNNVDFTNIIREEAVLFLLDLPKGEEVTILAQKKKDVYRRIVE

Chain of SCRIB_3, Q14160 (Q14160 999-1103): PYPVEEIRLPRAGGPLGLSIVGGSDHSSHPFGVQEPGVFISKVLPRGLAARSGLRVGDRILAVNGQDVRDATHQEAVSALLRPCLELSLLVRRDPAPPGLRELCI
Chain of GRIP2_7, Q9C0E4 (Q9C0E4 934-1023): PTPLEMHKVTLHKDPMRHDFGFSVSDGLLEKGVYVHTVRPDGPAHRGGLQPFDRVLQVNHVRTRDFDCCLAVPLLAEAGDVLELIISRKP
Chain of MAGI2_3, Q86UL8 (Q86UL8 600-682): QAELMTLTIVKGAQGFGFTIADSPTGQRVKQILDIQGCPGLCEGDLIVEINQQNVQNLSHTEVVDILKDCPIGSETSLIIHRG
Chain of AHNAK1, Q09666 (Q09666 4-100): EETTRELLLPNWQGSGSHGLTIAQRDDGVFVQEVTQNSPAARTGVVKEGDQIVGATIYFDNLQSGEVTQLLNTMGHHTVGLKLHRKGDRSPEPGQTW
Chain of NHERF4_4, Q86UT5 (Q86UT5 464-550): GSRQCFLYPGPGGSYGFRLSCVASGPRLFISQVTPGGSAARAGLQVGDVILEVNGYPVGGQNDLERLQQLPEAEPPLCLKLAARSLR
Chain of LDB3, O75112 (O75112 1-94): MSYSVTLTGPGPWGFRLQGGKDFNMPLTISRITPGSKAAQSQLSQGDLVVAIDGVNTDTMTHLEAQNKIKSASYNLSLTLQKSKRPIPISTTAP
Chain of Inadl_1, Q8NI35 (Q8NI35 113-229): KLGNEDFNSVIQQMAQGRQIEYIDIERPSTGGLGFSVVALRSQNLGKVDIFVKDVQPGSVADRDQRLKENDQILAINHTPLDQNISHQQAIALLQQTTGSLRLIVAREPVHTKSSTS
Chain of GIPC2, Q8TF65 (Q8TF65 112-203): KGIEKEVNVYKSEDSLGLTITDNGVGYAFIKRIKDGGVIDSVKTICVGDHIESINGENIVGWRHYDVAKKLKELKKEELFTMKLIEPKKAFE
Chain of MAGI2_2, Q86UL8 (Q86UL8 410-522): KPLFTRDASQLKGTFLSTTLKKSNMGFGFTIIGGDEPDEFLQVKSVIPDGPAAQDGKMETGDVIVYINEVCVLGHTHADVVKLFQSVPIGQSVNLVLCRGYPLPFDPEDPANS
Chain of GRID2IP_1, A4D2P6 (A4D2P6 1-87): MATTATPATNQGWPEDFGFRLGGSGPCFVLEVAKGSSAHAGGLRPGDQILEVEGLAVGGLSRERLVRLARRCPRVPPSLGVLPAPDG
Chain of TJP1_2, Q07157 (Q07157 181-274): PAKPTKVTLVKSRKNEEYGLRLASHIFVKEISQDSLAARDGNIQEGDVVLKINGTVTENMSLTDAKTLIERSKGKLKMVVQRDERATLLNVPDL

Binder	pKd [1]	pKd [2]	pKd [3]	pKd [4]	pKd [5]	pKd [6]	pKd [7]	pKd [8]	pKd [9]	pKd [10]	pKd [11]	pKd [12]	pKd [13]	pKd [14]	pKd [15]	pKd [16]	pKd [17]	pKd [18]	pKd [19]	pKd [20]	further results
TNSRHGETTV [FZD2, Q14332]	below the threshold	below the threshold	4.76	4.14	4.81	4.38	4.22	3.88	4.19	below the threshold	below the threshold	below the threshold	below the threshold	below the threshold	below the threshold	below the threshold	3.85	4.59	3.53	below the threshold	pKd [21]: below the threshold; pKd [22]: 3.92; pKd [23]: below the threshold; pKd [24]: 4; pKd [25]: 4.62; pKd [26]: below the threshold; pKd [27]: below the threshold; pKd [28]: below the threshold
STKRKLASAV [NCF1, P14598]	below the threshold	below the threshold	3.68	below the threshold	4.16	4.09	below the threshold	below the threshold	below the threshold	below the threshold	below the threshold	below the threshold	below the threshold	below the threshold	below the threshold	below the threshold	below the threshold	5.44	below the threshold	3.64	pKd [21]: below the threshold; pKd [22]: below the threshold; pKd [23]: below the threshold; pKd [24]: below the threshold; pKd [25]: 3.55; pKd [26]: 3.75; pKd [27]: below the threshold; pKd [28]: below the threshold
ARESQKVSHV [FAM110B, Q8TC76]	below the threshold	below the threshold	3.95	below the threshold	4.24	3.62	below the threshold	3.98	4.88	below the threshold	below the threshold	below the threshold	below the threshold	below the threshold	below the threshold	below the threshold	below the threshold	4.87	4.25	4.08	pKd [21]: below the threshold; pKd [22]: below the threshold; pKd [23]: below the threshold; pKd [24]: 4.55; pKd [25]: 4.47; pKd [26]: below the threshold; pKd [27]: below the threshold; pKd [28]: below the threshold
LESTTVGTSV [KARS1, Q15046]	below the threshold	below the threshold	4.27	3.78	4.06	4.23	below the threshold	below the threshold	below the threshold	below the threshold	below the threshold	below the threshold	below the threshold	below the threshold	below the threshold	below the threshold	below the threshold	below the threshold	3.73	3.72	pKd [21]: 4.13; pKd [22]: below the threshold; pKd [23]: below the threshold; pKd [24]: below the threshold; pKd [25]: 4.4; pKd [26]: 4.05; pKd [27]: below the threshold; pKd [28]: below the threshold

Source: article PMC9482650, “Quantitative fragmentomics allow affinity mapping of interactomes” (Nature Communications, 2022)
